Test results published in US20210093714A1, “Combination and method for inhibiting the cancer cells” (NATIONAL TAIWAN UNIVERSITY, priority 2013, published 2021).

Key:
DAPK = assay: Western blot of DAPK expression; type: cell-based, human
Protocol: (§1) Proteins ([…]) were separated by SDS-PAGE and transferred to a polyvinylidene difluoride membrane (Immobilon-P membrane; Millipore) by electrotransfer. The blot was blocked in a solution of 5% skim milk and 0.1% Tween 20 in PBS. Thereafter, membrane-bound proteins were probed with the following primary antibodies: CCN2, DAPK, phosphorylated ERK, ERK-1, phosphorylated Akt, Akt, TrkA, phosphorylated-Src, Src, b-actin, a-tubulin (Santa Cruz Biotechnology), p-EGFR, and EGFR (Cell Signaling Technology, Danvers, MA, USA). The membrane was washed and then incubated with HRP-conjugated secondary antibodies for 30 min. Enhanced chemiluminescence reagents (Amersham Pharmacia Biotech, Piscataway, N.J., USA) were employed to depict the protein bands on membranes. The light was captured on Kodak X-Omat Blue autoradiography film (PerkinElmer Life Sciences, Boston, Mass., USA).
This embodiment focuses on the downstream signaling in CCN2-induced anoikis. At first, the effect of DAPK which can up-regulate CCN2 played on CCN2 induced anoikis and metastasis inhibition of lung adenocarcinoma cell lineswas observed by RT-PCR, dual luciferase reporter assay and western blot analysis, the results shown in FIGS. 6A to 6C. […] In addition, in the lung adenocarcinoma cell line, CL1-0/siCCN2, DAPK expression is suppressed, and DAPK expression also be suppressed with increasing dose (0 μg, 1μg, 3μg), (as shown on the top right in the FIG. 6C). Therefore, CCN2 induced DAPK expression in time- and dose-dependent manners.

[1] = tested on: lung adenocarcinoma cell line, CL1-5; assay: In vivo metastasis of i.v. injected CL1-5, celltracker probe; details: nude mice, i.v. CL1-5; CCN2 1 mg/kg per day; FIG. 5G
Description: Mice were anesthetized with isoflurane inhalation, and biofluorescence images were photographed with a CCD camera (IVIS; Xenogen Corporation, Caliper Life Sciences, Hopkinton, Mass., USA) at specific times. Imaging times ranged from 1 to 60 s, depending on the amount of fluorescence activity. Biofluorescence from the region of interest (ROI) was defined manually, and the data were expressed as photon flux (photons/s/cm^2/steradian). Background photon flux was defined using an ROI from a mouse that was not given an […]. injection of cancer cells. All biofluorescence data were collected and analyzed using IVIS. Celltracker dye was purchased from Molecular Probes, Invitrogen Corporation.
Cells were washed and resuspended in PBS. […] The mice were injected i.v. with cells so that we could measure the metastatic potential and perform biofluorescence imaging. The mice were killed after 8 weeks, and all of their organs were examined for metastasis formation. The lungs were removed and fixed in 10% formalin fixative. The number of lung-tumor colonies was counted under a dissecting microscope. […]

ERK = assay: Western blot of ERK phosphorylation; type: cell-based, human; details: CL1-5, A549 and CL1-0/siCCN2; with increasing time; FIG. 3A
Protocol: as §1
This embodiment focuses on the effect of CCN2 on the EGFR-induced signaling pathways. At first, the effect of exogenous CCN2(rCCN2) on the MAPK/AKT signaling pathways in the lung adenocarcinoma cell lines, CL1-5, A549 and CL1-0/siCCN2 was observed by western blot analysis, the results shown in FIG. 3A.

EGFR/c-Cbl complex = biological target: T1, EGFR/c-Cbl complex (Homo sapiens, UniProt P00533); assay: Immunoprecipitation/western blot of EGFR/c-Cbl complex formation; type: cell-based; details: CL1-5 with MG132; 0 to 60 minutes; FIG. 4D
T1 construct: expressed in transfected cells; host or cells: CL1-5 (EGFR endogenous; HA-c-Cbl transiently transfected)
Protocol: as §1
(§2) CCN2 transfectants were seeded overnight and incubated in serum-free media for 24 h. For immunoprecipitations, cells were lysed in an RIPA buffer (150 mM NaCl, 50 mM Tris-base, 5 mM EDTA, 1% NP-40, and 0.25% deoxycholate; pH 7.4). Protein concentrations were determined using the BCA protein assay kit (Pierce, Rockford, Ill., USA). […]

[2] = tested on: lung adenocarcinoma cell line, CL1-5; assay: Anoikis assay (DNA fragmentation); type: cell-based, human; details: FIG. 5A
Description: This embodiment focuses on whether CCN2 can induce anoikis in lung adenocarcinoma cells in vitro and in vivo. At first, CCN2 induces anoikis which is induced by CCN2 in lung adenocarcinoma cells in vitro was observed by anoikis assay, the results shown in FIGS. 5A to 5C.

β-pix/c-Cbl complex = assay: Immunoprecipitation/western blot of β-pix/c-Cbl complex and β-pix phosphorylation; type: cell-based, human; details: CL1-5; 0 to 60 minutes; FIG. 4G
Protocol: as §1, §2

[3] = tested on: lung adenocarcinoma cell line, CL1-0/siCCN2; assay: Anoikis assay with DAPK siRNA; type: cell-based, human; details: CL1-0/siCCN2 in suspension, DAPK expression decreased due to siRNA; 24 h; FIG. 6C
wild-type EGFR = assay: Western blot of EGFR expression, H1299 wild-type EGFR; type: cell-based, human; details: H1299 lung adenocarcinoma cell lines (wild-type EGFR); 0 minutes to 4 hours; FIG. 7
Protocol: as §1
First, the effect of rCCN2 on the wild-type EGFR […] lung adenocarcinoma cell line, the mutated-type EGFR H1299 lung adenocarcinoma cell line, and the mutated-type EGFR H1975 lung adenocarcinoma cell line was observed by western blot analysis, the results shown in FIG. 7(Cell lysates of H1299 transfectants or H1975 cells were immunoblotted with anti-EGFR).

B1: Connective tissue growth factor (CCN2), wild-type full length (ligand, human, UniProt P29279 27-349, looked up)
chain: QNCSGPCRCPDEPAPRCPAGVSLVLDGCGCCRVCAKQLGELCTERDPCDPHKGLFCHFGSPANRKIGVCTAKDGAPCIFGGTVYRSGESFQSSCKYQCTCLDGAVGCMPLCSMDVRLPSPDCPFPRRVKLPGKCCEEWVCDEPKDQTVVGPALAAYRLEDTFGPDPTMIRANCLVQTTEWSACSKTCGMGISTRVTNDNASCRLEKQSRLCMVRPCEADLEENIKKGKKCIRTPKISKPIKFELSGCTSMKTYRAKFCGVCTDGRCCTPHRTTTLPVEFKCPDGEVMKKNMMFIKTCACHYNCPGDNDIFESLYYRKMYGDMA
notes: also called Recombinant CCN2; exogenous CCN2
- DAPK expression (DAPK; CL1-5, A549 and CL1-0/siCCN2, increasing time 0 minutes to 12 hours, FIG. 6B): promote DAPK expression
- DAPK expression (DAPK; CL1-5, increasing dose (0 μm, 1μg, 3 μg), FIG. 6C): promote DAPK expression
- celltracker signals in lungs [1]: much weaker
- number of metastatic lung nodules [1]: significantly reduced
- phosphorylation of ERK (p-ERK1/2) (ERK): gradually reduce the phosphorylation of ERK
- formation of EGFR/c-Cbl complex (EGFR/c-Cbl complex): gradually increase the formation of EGFR/c-Cbl complex
- DNA fragmentation ([2]; attached CL1-5, rCCN2 0, 20, 100, 200 ng/mL): no obvious difference
- DNA fragmentation ([2]; suspended CL1-5, rCCN2 with higher concentration): increased
- formation of β-pix/c-Cbl complex (β-pix/c-Cbl complex): gradually reduce the formation of β-pixie-Chi complex
- β-pix phosphorylation (β-pix/c-Cbl complex): reduces β-pix phosphorylation
- rCCN2 induced DNA fragmentation [3]: decreased
- expression of EGFR (wild-type EGFR): inhibit the expression of EGFR more significantly
